From IntAct's records for PubMed 20598684

B1: Abl interactor 1 (Homo sapiens), Q8IZP0 (parent)
chain: MAELQMLLEEEIPSGKRALIESYQNLTRVADYCENNYIQATDKRKALEETKAYTTQSLASVAYQINALANNVLQLLDIQASQLRRMESSINHISQTVDIHKEKVARREIGILTTNKNTSRTHKIIAPANMERPVRYIRKPIDYTVLDDVGHGVKWLKAKHGNNQPARTGTLSRTNPPTQKPPSPPMSGRGTLGRNTPYKTLEPVKPPTVPNDYMTSPARLGSQHSPGRTASLNQRPRTHSGSSGGSGSRENSGSSSIGIPIAVPTPSPPTIGPENISVPPPSGAPPAPPLAPLLPVSTVIAAPGSAPGSQYGTMTRQISRHNSTTSSTSSGGYRRTPSVTAQFSAQPHVNGGPLYSQNSISIAPPPPPMPQLTPQIPLTGFVARVQENIADSPTPPPPPPPDDIPMFDDSPPPPPPPPVDYEDEEAAVVQYNDPYADGDPAWAPKNYIEKVVAIYDYTKDKDDELSFMEGAIIYVIKKNDDGWYEGVCNRVTGLFPGNYVESIMHYTD

Variants of: B1
Conditions: with p85a_human PIK3R1, P27986
Sequence of p85a_human PIK3R1, P27986 (P27986 whole entry): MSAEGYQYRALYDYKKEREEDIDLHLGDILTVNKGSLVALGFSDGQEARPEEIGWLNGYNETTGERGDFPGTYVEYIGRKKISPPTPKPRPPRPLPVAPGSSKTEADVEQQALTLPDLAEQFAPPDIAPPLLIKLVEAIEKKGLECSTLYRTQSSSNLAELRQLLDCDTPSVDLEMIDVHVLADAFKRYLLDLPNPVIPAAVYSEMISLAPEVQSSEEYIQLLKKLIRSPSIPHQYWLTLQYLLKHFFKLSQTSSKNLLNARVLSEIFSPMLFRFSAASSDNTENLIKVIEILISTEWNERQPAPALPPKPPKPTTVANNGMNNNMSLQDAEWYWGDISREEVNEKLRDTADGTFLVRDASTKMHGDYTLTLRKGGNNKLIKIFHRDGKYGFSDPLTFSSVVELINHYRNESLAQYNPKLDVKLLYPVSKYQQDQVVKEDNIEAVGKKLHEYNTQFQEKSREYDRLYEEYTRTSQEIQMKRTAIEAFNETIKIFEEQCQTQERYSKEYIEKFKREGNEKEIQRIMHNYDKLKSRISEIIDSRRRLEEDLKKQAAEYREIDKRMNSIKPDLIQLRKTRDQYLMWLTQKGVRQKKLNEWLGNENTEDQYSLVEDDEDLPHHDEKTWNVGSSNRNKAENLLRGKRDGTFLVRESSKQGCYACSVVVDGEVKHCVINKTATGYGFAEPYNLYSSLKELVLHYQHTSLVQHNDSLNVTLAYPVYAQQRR

Row | Variant | effect of a mutation on the interaction
1 | Y213F | disrupting interaction
